Reference: article PMC10681739, “High-throughput data and modeling reveal insights into the mechanisms of cooperative DNA-binding by transcription factor proteins”
Numbering of substitutions follows the chain as printed.

B1: Table S2 A row 393 (dsDNA)
DNA 1: CTGACGCATTTCCGGCCTTTGCGGTTGATCGGTCAT
DNA 2: ATGACCGATCAACCGCAAAGGCCGGAAATGCGTCAG
B2: Table S2 A row 280 (dsDNA)
DNA 1: CCTGCAGCAACAGGATGTGGTTTGAAAGGATGAAAG
DNA 2: CTTTCATCCTTTCAAACCACATCCTGTTGCTGCAGG
B3: Table S2 A row 1759 (dsDNA)
DNA 1: CCTGTTGATAAAACAGGATGTGGTAAAGAAGCTGGC
DNA 2: GCCAGCTTCTTTACCACATCCTGTTTTATCAACAGG
B4: Table S2 A row 1460 (dsDNA)
DNA 1: TAGCCACTAACCGGAAACGTTAAACCACAGCTCCGT
DNA 2: ACGGAGCTGTGGTTTAACGTTTCCGGTTAGTGGCTA
B5: Table S2 A row 706 (dsDNA)
DNA 1: B4 DNA 1 with T8G
DNA 2: B4 DNA 2 with A29C
B6: Table S2 A row 1371 (dsDNA)
DNA 1: GAACCTGGGAGGCGGAAGTTGCGGTTAGCCGAGATC
DNA 2: GATCTCGGCTAACCGCAACTTCCGCCTCCCAGGTTC
B7: Table S2 A row 1217 (dsDNA)
DNA 1: TGGGGGATGGCAGCAGGATGTGGTTATCTCAGAAAG
DNA 2: CTTTCTGAGATAACCACATCCTGCTGCCATCCCCCA
B8: Table S2 A row 978 (dsDNA)
DNA 1: ACTGAACAAACCGGATGTGGTTGCCACCTGCAATCT
DNA 2: AGATTGCAGGTGGCAACCACATCCGGTTTGTTCAGT
B9: Table S2 A row 1401 (dsDNA)
DNA 1: GCATTTACGGGCAGGAAATGAAACCACAGAGTACAA
DNA 2: TTGTACTCTGTGGTTTCATTTCCTGCCCGTAAATGC
B10: Table S2 A row 270 (dsDNA)
DNA 1: CTCATTGACAGGAAGTCTAACCACAGGCTTAGGCCC
DNA 2: GGGCCTAAGCCTGTGGTTAGACTTCCTGTCAATGAG
B11: Table S2 A row 1184 (dsDNA)
DNA 1: GAAGCTCCCCAAACAGGATGTGGTTAGGGAGAGGGG
DNA 2: CCCCTCTCCCTAACCACATCCTGTTTGGGGAGCTTC
B12: Table S2 A row 1295 (dsDNA)
DNA 1: GCTCTGGGTCACACAGGATGTGGTTTTTGAAGTTTG
DNA 2: CAAACTTCAAAAACCACATCCTGTGTGACCCAGAGC
B13: Table S2 A row 443 (dsDNA)
DNA 1: CCATGCACAACAGGATGTGGTTAGACAGTCAAAATT
DNA 2: AATTTTGACTGTCTAACCACATCCTGTTGTGCATGG
B14: Table S2 A row 167 (dsDNA)
DNA 1: GACAATGAGCGCACAGGATGTGGTTTGGCGGCAGGG
DNA 2: CCCTGCCGCCAAACCACATCCTGTGCGCTCATTGTC
B15: Table S3 C row 134 (dsDNA)
DNA 1: GGGCAGAAGCACACAAGGAAGTGTTTCTGGGACAGA
DNA 2: TCTGTCCCAGAAACACTTCCTTGTGTGCTTCTGCCC
B16: Table S3 C row 149 (dsDNA)
DNA 1: CTCAAGGAGGTGGGACTTCCTGCTAGGTGGGCCGTG
DNA 2: CACGGCCCACCTAGCAGGAAGTCCCACCTCCTTGAG
B17: Table S3 C row 186 (dsDNA)
DNA 1: GCTTTCTGGACTACACTTCCCAGAAGCCTCTAGGCC
DNA 2: GGCCTAGAGGCTTCTGGGAAGTGTAGTCCAGAAAGC
B18: Table S3 C row 175 (dsDNA)
DNA 1: CTGCGCGGCCCACCCCGGATGTCAGCCCCACGCGCC
DNA 2: GGCGCGTGGGGCTGACATCCGGGGTGGGCCGCGCAG
B19: Table S3 C row 141 (dsDNA)
DNA 1: CTCCAACCCTTGTCCCTTCCGCCTGCCACTGCAGGT
DNA 2: ACCTGCAGTGGCAGGCGGAAGGGACAAGGGTTGGAG
B20: Table S3 C row 63 (dsDNA)
DNA 1: GCACTGAGGCTGACCCGGAAGTTTAAATTACGCTCC
DNA 2: GGAGCGTAATTTAAACTTCCGGGTCAGCCTCAGTGC
B21: Table S3 C row 37 (dsDNA)
DNA 1: ACCCTCTGTTTTGAGCTTCCGGTAGAGGCTGGTAGG
DNA 2: CCTACCAGCCTCTACCGGAAGCTCAAAACAGAGGGT
B22: Table S3 C row 168 (dsDNA)
DNA 1: CAGAAGTCCCGACCCCATCCTGCCACGCCTCAGCGT
DNA 2: ACGCTGAGGCGTGGCAGGATGGGGTCGGGACTTCTG
B23: Table S3 C row 199 (dsDNA)
DNA 1: TATCTGAGGAGTGGCAGGAAGTCTGGGGTGACTTTT
DNA 2: AAAAGTCACCCCAGACTTCCTGCCACTCCTCAGATA
B24: Table S3 C row 7 (dsDNA)
DNA 1: ACCCCGACGCAGCCTGGGAAGTGTAGTCCTCTCTGC
DNA 2: GCAGAGAGGACTACACTTCCCAGGCTGCGTCGGGGT
B25: Table S3 C row 171 (dsDNA)
DNA 1: AGGAGACAAGCGCCACTTCCGGCAGCGAAGTCACTT
DNA 2: AAGTGACTTCGCTGCCGGAAGTGGCGCTTGTCTCCT
B26: Table S3 C row 16 (dsDNA)
DNA 1: GCTAGATGAAGCCCCTTTCCTGTTGCTGCCTACATT
DNA 2: AATGTAGGCAGCAACAGGAAAGGGGCTTCATCTAGC
B27: Table S3 C row 136 (dsDNA)
DNA 1: GAACTCAGTACAGGCCGGAAGTCGGGGTACGGGGCC
DNA 2: GGCCCCGTACCCCGACTTCCGGCCTGTACTGAGTTC
B28: Table S3 C row 142 (dsDNA)
DNA 1: GCCCCTGCCCCAGAGAGGAAGTTCGGCCTCATCGAG
DNA 2: CTCGATGAGGCCGAACTTCCTCTCTGGGGCAGGGGC
B29: Table S3 C row 60 (dsDNA)
DNA 1: GGGGCTACTCGCAACAGGAAGTTCGGCCCTTAAAAA
DNA 2: TTTTTAAGGGCCGAACTTCCTGTTGCGAGTAGCCCC
B30: Table S3 C row 189 (dsDNA)
DNA 1: TCGCTGATGGCGTCATTTCCGTGAGTCATCTGAGGG
DNA 2: CCCTCAGATGACTCACGGAAATGACGCCATCAGCGA
B31: Table S3 C row 125 (dsDNA)
DNA 1: TTCCATTCGATGATGCTTCCGTATGAATCCATTCAC
DNA 2: GTGAATGGATTCATACGGAAGCATCATCGAATGGAA
B32: Table S3 C row 30 (dsDNA)
DNA 1: ACCGACCTGCCTCGCCGGAACTCCTCGCGCATCGCC
DNA 2: GGCGATGCGCGAGGAGTTCCGGCGAGGCAGGTCGGT
B33: Table S3 C row 177 (dsDNA)
DNA 1: TCTCCTACTCCTGCGCGGATGCTCTAGGCCGCTTGC
DNA 2: GCAAGCGGCCTAGAGCATCCGCGCAGGAGTAGGAGA
B34: Table S3 C row 68 (dsDNA)
DNA 1: CCCTATTCGCAGAGGAGGAAGTGGAGGCTCTCCAGG
DNA 2: CCTGGAGAGCCTCCACTTCCTCCTCTGCGAATAGGG
B35: Table S3 C row 88 (dsDNA)
DNA 1: TCTCACGTAGACGCGCGGAAACACTAACGAGTTGAA
DNA 2: TTCAACTCGTTAGTGTTTCCGCGCGTCTACGTGAGA
B36: Table S3 C row 115 (dsDNA)
DNA 1: GCCACCAGAGGGCGCCGGAAGTCCTGACCCATTGTC
DNA 2: GACAATGGGTCAGGACTTCCGGCGCCCTCTGGTGGC
B37: Table S3 C row 42 (dsDNA)
DNA 1: CTTTGGCAGCAAGAACATCCGTTCTCTGTTCTTTGC
DNA 2: GCAAAGAACAGAGAACGGATGTTCTTGCTGCCAAAG
B38: Table S3 C row 182 (dsDNA)
DNA 1: TCTGCAGAGGGTTCCCGGATACACCTTGCGAAGAAT
DNA 2: ATTCTTCGCAAGGTGTATCCGGGAACCCTCTGCAGA
B39: Table S3 C row 183 (dsDNA)
DNA 1: CGCCCCAATGTTCGGCGGAAGGGAGGGAGGGTCTCC
DNA 2: GGAGACCCTCCCTCCCTTCCGCCGAACATTGGGGCG
B40: Table S3 C row 64 (dsDNA)
DNA 1: CTCCATCACTGTCGGAGGAAGTGGCATGCAGAGTGG
DNA 2: CCACTCTGCATGCCACTTCCTCCGACAGTGATGGAG
B41: Table S3 C row 158 (dsDNA)
DNA 1: ACAAAAAAACCCTACCTTCCGCCATGTCTGGCCCGG
DNA 2: CCGGGCCAGACATGGCGGAAGGTAGGGTTTTTTTGT
B42: Table S3 C row 19 (dsDNA)
DNA 1: TCCAGACCTCCCCGTCTTCCGGCTGCCCTGAACGTC
DNA 2: GACGTTCAGGGCAGCCGGAAGACGGGGAGGTCTGGA
B43: Table S3 C row 73 (dsDNA)
DNA 1: CCCAGATCACATGACAGGAAGGCAAAGTCCTCAGGT
DNA 2: ACCTGAGGACTTTGCCTTCCTGTCATGTGATCTGGG

Molecular target: ETS1:RUNX1 (Homo sapiens, UniProt P14921;Q01196 full;full)
Sequence (P14921 whole entry, chain 1 of 2): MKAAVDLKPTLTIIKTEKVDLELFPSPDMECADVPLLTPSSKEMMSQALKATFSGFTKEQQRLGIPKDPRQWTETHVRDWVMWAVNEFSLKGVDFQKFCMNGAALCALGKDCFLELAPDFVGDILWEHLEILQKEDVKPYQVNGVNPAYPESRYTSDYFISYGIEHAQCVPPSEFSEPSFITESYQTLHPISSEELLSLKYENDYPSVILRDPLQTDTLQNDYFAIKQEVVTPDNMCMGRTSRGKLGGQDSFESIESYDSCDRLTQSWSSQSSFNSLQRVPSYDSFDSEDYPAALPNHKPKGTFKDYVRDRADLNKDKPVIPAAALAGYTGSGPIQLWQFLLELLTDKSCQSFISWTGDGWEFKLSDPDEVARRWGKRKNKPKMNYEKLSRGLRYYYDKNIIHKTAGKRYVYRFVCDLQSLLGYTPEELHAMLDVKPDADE
Sequence (Q01196 whole entry, chain 2 of 2): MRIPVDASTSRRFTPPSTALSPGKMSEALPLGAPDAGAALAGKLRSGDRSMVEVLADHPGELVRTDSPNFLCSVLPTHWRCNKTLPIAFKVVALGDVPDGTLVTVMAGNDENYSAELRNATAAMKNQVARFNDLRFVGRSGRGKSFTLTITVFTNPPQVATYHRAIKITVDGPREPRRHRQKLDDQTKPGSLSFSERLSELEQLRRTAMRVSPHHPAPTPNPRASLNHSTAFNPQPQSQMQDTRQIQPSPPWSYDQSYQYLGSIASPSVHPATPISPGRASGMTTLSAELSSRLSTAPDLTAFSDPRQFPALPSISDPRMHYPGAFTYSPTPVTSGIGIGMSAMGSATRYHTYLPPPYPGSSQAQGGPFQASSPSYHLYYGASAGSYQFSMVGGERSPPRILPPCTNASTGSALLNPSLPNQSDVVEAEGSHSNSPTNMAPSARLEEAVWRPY
Experiment: gcPBM; 1 nM ETS1 + 25 nM RUNX1, anti-ETS1 signal, normalised
Settings: tags: N-terminal GST (pDEST15), kept (PMC6008103); copies: 1;1; label: surface-attached array probe

Binder | binding signal
B1 | 30800 PBM fluorescence, median of replicate spots
B2 | 32100 PBM fluorescence, median of replicate spots
B3 | 43300 PBM fluorescence, median of replicate spots
B4 | 56100 PBM fluorescence, median of replicate spots
B5 | 46400 PBM fluorescence, median of replicate spots
B6 | 64700 PBM fluorescence, median of replicate spots
B7 | 29000 PBM fluorescence, median of replicate spots
B8 | 38500 PBM fluorescence, median of replicate spots
B9 | 36500 PBM fluorescence, median of replicate spots
B10 | 29200 PBM fluorescence, median of replicate spots
B11 | 58300 PBM fluorescence, median of replicate spots
B12 | 49000 PBM fluorescence, median of replicate spots
B13 | 29600 PBM fluorescence, median of replicate spots
B14 | 33400 PBM fluorescence, median of replicate spots

Molecular target: RUNX1 (Homo sapiens, UniProt Q01196)
Sequence (Q01196 whole entry): as the sequence (Q01196 whole entry, chain 2 of 2) above
Experiment: gcPBM; 2 nM RUNX1
Settings: tags: N-terminal GST (pDEST15), kept (PMC6008103); label: surface-attached array probe

Binder | binding signal
B15 | 813 PBM fluorescence, median of replicate spots
B16 | 829 PBM fluorescence, median of replicate spots
B17 | 826 PBM fluorescence, median of replicate spots
B18 | 823 PBM fluorescence, median of replicate spots
B19 | 850 PBM fluorescence, median of replicate spots
B20 | 812 PBM fluorescence, median of replicate spots
B21 | 852 PBM fluorescence, median of replicate spots
B22 | 810 PBM fluorescence, median of replicate spots
B23 | 815 PBM fluorescence, median of replicate spots
B24 | 822 PBM fluorescence, median of replicate spots
B25 | 814 PBM fluorescence, median of replicate spots
B26 | 818 PBM fluorescence, median of replicate spots
B27 | 841 PBM fluorescence, median of replicate spots
B28 | 827 PBM fluorescence, median of replicate spots
B29 | 839 PBM fluorescence, median of replicate spots
B30 | 823 PBM fluorescence, median of replicate spots
B31 | 844 PBM fluorescence, median of replicate spots
B32 | 816 PBM fluorescence, median of replicate spots
B33 | 846 PBM fluorescence, median of replicate spots
B34 | 829 PBM fluorescence, median of replicate spots
B35 | 840 PBM fluorescence, median of replicate spots
B36 | 838 PBM fluorescence, median of replicate spots
B37 | 821 PBM fluorescence, median of replicate spots
B38 | 844 PBM fluorescence, median of replicate spots
B39 | 835 PBM fluorescence, median of replicate spots
B40 | 818 PBM fluorescence, median of replicate spots
B41 | 847 PBM fluorescence, median of replicate spots
B42 | 812 PBM fluorescence, median of replicate spots
B43 | 850 PBM fluorescence, median of replicate spots
